Key:
[1] = target: fusion protein consisting of the extracellular region of the human Fas antigen and the extracellular region of the mouse interleukin 3 receptor (encoded by phFas-AIC2) (human; mouse) (UniProt P25445); test: ELISA; plate coated with COS-1 supernatant holding the human Fas ECD-mouse IL-3 receptor ECD fusion; detection with peroxidase-labelled rat anti-mouse IgM; PBS blank 0.104
[2] = target: human Fas antigen on human lymphocyte cell line HPB-ALL (human) (UniProt P25445); test: cell-based or functional assay

Substance | OD405 - OD492 (OD405 - OD492) [1] | ED50 [2] [µg/mL] | OD590 - OD620 (MTT assay, viable HPB-ALL cells) (OD590 - OD620) [2] | activity (cytotoxicity, ED50 test) relative to CH11 and supernatant [F] [2] [fold]
recombinant CH11 H chain + L chain product in COS-1 culture supernatant [E] (pHEX126 and pLEX004), without J chain (antibody) | 0.33 | 0.0045 | 0.176 | 5
CH11 L chain alone, COS-1 culture supernatant of cells transfected with pLEX004 | 0.135 |  | 0.887 | 
mouse anti-human Fas monoclonal antibody CH11 (IgM), purified from hybridoma culture supernatant | 0.445 | 0.0212 |  | 
CH11 J chain alone, COS-1 culture supernatant of cells transfected with pJEX004 | 0.107 |  | 0.883 | 
CH11 H chain alone, COS-1 culture supernatant of cells transfected with pHEX126 | 0.109 |  | 0.876 | 
recombinant CH11 H chain + L chain + J chain product in COS-1 culture supernatant [F] (pHEX126, pLEX004 and pJEX004) (antibody) | 0.202 | 0.0229 | 0.242 | 
